Source: publication PMC3443260
Like-named read-outs stand apart in the source and are kept apart here.

Columns and labels:
[1] = target: Flag-tagged mouse GGA2 (mouse) (UniProt Q6P5E6); test: BLI
[2] = target: CI-MPR C-terminal DXXLL peptide (Homo sapiens) (UniProt P11717); test: ITC; settings: cited from earlier work
[3] = target: Flag-tagged mouse GGA2 (mouse) (UniProt Q6P5E6); test: BLI; remark: listed apart in the source

Chain of Flag-tagged mouse GGA2 (mouse) (Q6P5E6 whole entry): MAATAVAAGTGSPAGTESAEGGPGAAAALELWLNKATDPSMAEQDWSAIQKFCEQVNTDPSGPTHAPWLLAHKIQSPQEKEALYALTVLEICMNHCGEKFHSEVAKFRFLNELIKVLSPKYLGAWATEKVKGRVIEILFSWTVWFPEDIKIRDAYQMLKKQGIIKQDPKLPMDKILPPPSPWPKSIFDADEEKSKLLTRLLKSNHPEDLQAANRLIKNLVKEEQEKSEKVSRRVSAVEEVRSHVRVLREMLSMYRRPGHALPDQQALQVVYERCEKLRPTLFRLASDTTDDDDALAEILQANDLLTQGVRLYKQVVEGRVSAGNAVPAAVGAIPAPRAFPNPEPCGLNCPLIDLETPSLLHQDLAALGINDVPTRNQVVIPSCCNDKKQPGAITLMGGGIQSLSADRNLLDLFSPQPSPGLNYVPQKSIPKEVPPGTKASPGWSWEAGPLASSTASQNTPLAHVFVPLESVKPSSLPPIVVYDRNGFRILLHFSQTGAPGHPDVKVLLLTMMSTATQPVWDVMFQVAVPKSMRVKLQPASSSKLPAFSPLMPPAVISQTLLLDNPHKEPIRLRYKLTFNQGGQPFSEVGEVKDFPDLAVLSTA
Chain of GGA2 VHS (Q9UJY4 30-166): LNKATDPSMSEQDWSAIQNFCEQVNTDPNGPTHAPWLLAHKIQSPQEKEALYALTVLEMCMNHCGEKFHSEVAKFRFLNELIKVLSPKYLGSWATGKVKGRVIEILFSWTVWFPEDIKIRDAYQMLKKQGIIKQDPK

Substance | Kd [1] [nM] | koff [1] [s⁻¹] | Kd [2] [nM] | Kd [3] [nM]
MBP-LRP9 30mer containing both DXXLL motifs (peptide) | 150 | 0.0052 |  | 
GGA2 VHS (from UniProt Q9UJY4) |  |  | 7100 | 
MBP-LRP9 30mer with the C-terminal DXXLL motif mutated to AXXAA (peptide) | 280 | 0.0059 |  | 380
